Laboratory results: patent US20060024313
Where a chain is given by its changes, count along the chain named. Names may count otherwise.

Biological target: P27487

B1: endogenous DPP-IV purified from human semen (sDPP-IV) (protein)
chain: SRKTYTLTDYLKNTYRLKLYSLRWISDHEYLYKQENNILVFNAEYGNSSVFLENSTFDEFGHSINDYSISPDGQFILLEYNYVKQWRHSYTASYDIYDLNKRQLITEERIPNNTQWVTWSPVGHKLAYVWNNDIYVKIEPNLPSYRITWTGKEDIIYNGITDWVYEEEVFSAYSALWWSPNGTFLAYAQFNDTEVPLIEYSFYSDESLQYPKTVRVPYPKAGAVNPTVKFFVVNTDSLSSVTNATSIQITAPASMLIGDHYLCDVTWATQERISLQWLRRIQNYSVMDICDYDESSGRWNCLVARQHIEMSTTGWVGRFRPSEPHFTLDGNSFYKIISNEEGYRHICYFQIDKKDCTFITKGTWEVIGIEALTSDYLYYISNEYKGMPGGRNLYKIQLSDYTKVTCLSCELNPERCQYYSVSFSKEAKYYQLRCSGPGLPLYTLHSSVNDKGLRVLEDNSALDKMLQNVQMPSKKLDFIILNETKFWYQMILPPHFDKSKKYPLLLDVYAGPCSQKADTVFRLNWATYLASTENIIVASFDGRGSGYQGDKIMHAINRRLGTFEVEDQIEAARQFSKMGFVDNKRIAIWGWSYGGYVTSMVLGSGSGVFKCGIAVAPVSRWEYYDSVYTERYMGLPTPEDNLDHYRNSTVMSRAENFKQVEYLLIHGTADDNVHFQQSAQISKALVDVGVDFQAMWYTDEDHGIASSTAHQHIYTHMSHFIKQCFSLP
  specific activity after serial dilution (H-Gly-Pro-pNA hydrolysis): no decrease in specific activity were observed for either sDPP-IV or rDPP-IV even at a concentration as low as 1.6 nM

B2: recombinant wild-type human DPP-IV (rDPP-IV), amino acids 39 to 766, secreted from baculovirus-infected Hi5 insect cells (protein)
chain: B1 chain
  specific activity after serial dilution (H-Gly-Pro-pNA hydrolysis): no decrease in specific activity were observed for either sDPP-IV or rDPP-IV even at a concentration as low as 1.6 nM

B3: DPP-IV H750A mutant (protein)
chain: B1 chain with H712A
  specific activity after serial dilution (H-Gly-Pro-pNA hydrolysis): the specific activity of H750A protein was also constant over the range of 200 nM to 1.6 nM
